From the supplement of paper PMC7877785
± gives the uncertainty stated by the source.

Assay: self-splicing fitness, log relative to wild type (ln ratio); higher = more splicing; Tetrahymena group I intron in knt gene, E. coli kanamycin selection, DiMSum; sequences stand for … in CUCUCU…GGAGGGAAAAGUUAUCAGGCAUGCACCUGGUAGCUAGUCUUUAAACCAAUAGAUUGCAUCGGUUUAAAAGGCAAGACCGUCAAAUUGCGGGAAAGGGGUCAACAGCCGUUCAGUACCAAGUCUCAGGGGAAACUUUGAGAUGGCCUUGCAAAGGGUAUGGUAAUAAGCUGACGGACAUGGUCCUAACCACGCAGCCAAGUCCUAAGUCAACAGAUCUUCUGUUGAUAUGGAUGCAGUUCACAGACUAAAUGUCGGUCGGGGAAGAUGUAUUCUUCUCAUAAGAUAUAGUCGGACCUCUCCUUAAUGGGAGCUAGCGGAUGAAGUGAUGCAACACUGGAGCCGCUGGGAACUAAUUUGUAUGCGAAAGUAUAUUGAUUAGUUUUGGAGUACUCGUGGUCG
Outline: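 Colonies from six replicate transformations of E. coli BL21(DE3) were pooled and amplicon-sequenced on an Illumina HiSeq 2500. The library placed an intron with all eight P1ex-region nucleotides randomised inside the knt kanamycin-resistance gene on pET-22b(+), and cells grew overnight at 37°C or 30°C on LB agar with or without 25 μg/mL kanamycin (plus 100 μg/mL carbenicillin, 50 μM IPTG, 0.2% rhamnose). Fitness is the DiMSum error-weighted combination of wild-type-normalised replicate fold changes, kanamycin versus none.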

Sequence | self-splicing fitness (ln) (30 °C) | self-splicing fitness (ln) (37 °C)
CCGAAGCAAUAUUACGGGGU | -4.25 ± 0.22 | -2.6 ± 0.21
CCGAAGCAAUAUUACGGGUA | -4.26 ± 0.3 | -2.35 ± 0.22
CCGAAGCAAUAUUACGGUAC |  | -1.85 ± 0.25
CCGAAGCAAUAUUACGGUCG | -0.661 ± 0.11 | -0.369 ± 0.14
CCGAAGCAAUAUUACGUAAG | -0.257 ± 0.055 | 0.2 ± 0.073
CCGAAGCAAUAUUACGUCGA | -2.38 ± 0.17 | -1.74 ± 0.12
CCGAAGCAAUAUUACGUUGA | -3.76 ± 0.15 | -3.45 ± 0.17
CCGCAGCAAUAUUACGAAGA | -2.83 ± 0.26 | -2.57 ± 0.24
CCGCAGCAAUAUUACGACGG | -2.83 ± 0.11 | -2.64 ± 0.19
CCGCAGCAAUAUUACGACUA | -3.8 ± 0.34 | -3.46 ± 0.29
CCGCAGCAAUAUUACGACUC | -3.06 ± 0.23 | -2.02 ± 0.26
CCGCAGCAAUAUUACGAUCA | -2.72 ± 0.22 | -1.85 ± 0.27
CCGCAGCAAUAUUACGAUUC | -3.56 ± 0.19 | -3.03 ± 0.21
CCGCAGCAAUAUUACGCACC | -3.46 ± 0.23 | -2.05 ± 0.24
CCGCAGCAAUAUUACGCCGG | -3.15 ± 0.38 | -3 ± 0.43
CCGCAGCAAUAUUACGCGGU | -3.18 ± 0.16 | -2.5 ± 0.22
CCGCAGCAAUAUUACGCUAA | -3.22 ± 0.22 | -2.55 ± 0.23
CCGCAGCAAUAUUACGGACG | -2.13 ± 0.1 | -0.204 ± 0.11
CCGCAGCAAUAUUACGGAUU | -3.8 ± 0.14 | -2.75 ± 0.16
CCGCAGCAAUAUUACGGCCC | -3.3 ± 0.48 | 
CCGCAGCAAUAUUACGGCCU | -3.67 ± 0.42 | -2.88 ± 0.24
CCGCAGCAAUAUUACGGCUC | -4.29 ± 0.21 | -1.34 ± 0.12
CCGCAGCAAUAUUACGGUGG | -3.11 ± 0.12 | -3.48 ± 0.2
CCGCAGCAAUAUUACGUAAA | -4.2 ± 0.25 | -2.62 ± 0.2
CCGCAGCAAUAUUACGUAAG | 0.385 ± 0.056 | -0.112 ± 0.062

Sequence | self-splicing fitness (ln) (30 °C) | self-splicing fitness (ln) (37 °C)
CCGCAGCAAUAUUACGUCUA | -1.79 ± 0.32 | -3 ± 0.3
CCGCAGCAAUAUUACGUGAU | -2.62 ± 0.15 | -2.31 ± 0.2
CCGCAGCAAUAUUACGUGCC | -3.67 ± 0.24 | -3.75 ± 0.3
CCGCAGCAAUAUUACGUGUG | -3.24 ± 0.11 | -1.79 ± 0.094
CCGCAGCAAUAUUACGUUAG | -1.11 ± 0.064 | -0.553 ± 0.076
CCGCAGCAAUAUUACGUUUA | -3.22 ± 0.18 | -2.35 ± 0.14
CCGGAGCAAUAUUACGAAAA |  | -2.99 ± 0.48
CCGGAGCAAUAUUACGAAUA |  | -2.16 ± 0.4
CCGGAGCAAUAUUACGAAUU |  | -3.26 ± 0.3
CCGGAGCAAUAUUACGACGC | -3.23 ± 0.22 | -2.22 ± 0.32
CCGGAGCAAUAUUACGACUA | -2.18 ± 0.45 | -1.88 ± 0.27
CCGGAGCAAUAUUACGACUU | -2.23 ± 0.24 | -1.86 ± 0.48
CCGGAGCAAUAUUACGAGCC | -3.09 ± 0.31 | -2.1 ± 0.42
CCGGAGCAAUAUUACGAGCU | -2.94 ± 0.35 | -1.84 ± 0.49
CCGGAGCAAUAUUACGAGUG | -1.61 ± 0.076 | -0.14 ± 0.084
CCGGAGCAAUAUUACGAUGG | -3.6 ± 0.48 | -3 ± 0.43
CCGGAGCAAUAUUACGAUUG | -0.529 ± 0.094 | 0.132 ± 0.14
CCGGAGCAAUAUUACGCGCC | -1.89 ± 0.32 | 
CCGGAGCAAUAUUACGCUCA | -3.12 ± 0.3 | -2.71 ± 0.41
CCGGAGCAAUAUUACGCUUG | -2.67 ± 0.24 | -2.22 ± 0.27
CCGGAGCAAUAUUACGGAAA | -1.87 ± 0.18 | -2.41 ± 0.3
CCGGAGCAAUAUUACGGAAC | -3.29 ± 0.47 | -1.67 ± 0.36
CCGGAGCAAUAUUACGGAAG | -2.73 ± 0.11 | -2.21 ± 0.14
CCGGAGCAAUAUUACGGAUU |  | -1.82 ± 0.2
CCGGAGCAAUAUUACGGGCU | -3.52 ± 0.35 | -3.75 ± 0.42

Sequence | self-splicing fitness (ln) (30 °C) | self-splicing fitness (ln) (37 °C)
CCGGAGCAAUAUUACGGUAA | -2.12 ± 0.25 | -3.21 ± 0.4
CCGGAGCAAUAUUACGUACU | -4.13 ± 0.44 | -3.36 ± 0.42
CCGGAGCAAUAUUACGUAGA | -3.6 ± 0.19 | -2.66 ± 0.2
CCGGAGCAAUAUUACGUCGC | -2.63 ± 0.32 | -2.43 ± 0.41
CCGGAGCAAUAUUACGUGAA |  | -1.86 ± 0.31
CCGGAGCAAUAUUACGUGCU | -2.99 ± 0.17 | -2.85 ± 0.24
CCGGAGCAAUAUUACGUGGU | -3.01 ± 0.2 | 0.658 ± 0.18
CCGGAGCAAUAUUACGUGUG | -1.68 ± 0.039 | -1.05 ± 0.061
CCGUAGCAAUAUUACGAAGG | -3.22 ± 0.39 | 
CCGUAGCAAUAUUACGAAGU | -3.05 ± 0.21 | -1.46 ± 0.31
CCGUAGCAAUAUUACGACUU | -2.98 ± 0.37 | -2.67 ± 0.41
CCGUAGCAAUAUUACGAGCC |  | -1.01 ± 0.42
CCGUAGCAAUAUUACGAGCU | -3.28 ± 0.22 | -3.35 ± 0.24
CCGUAGCAAUAUUACGAUUG | -0.486 ± 0.064 | -0.0224 ± 0.082
CCGUAGCAAUAUUACGCAAU | -3.31 ± 0.24 | -2.05 ± 0.22
CCGUAGCAAUAUUACGCGCA | -3.09 ± 0.3 | -1.69 ± 0.4
CCGUAGCAAUAUUACGCUGC | -2.07 ± 0.47 | -1.49 ± 0.45
CCGUAGCAAUAUUACGCUUU | -3.52 ± 0.43 | -2.23 ± 0.49
CCGUAGCAAUAUUACGGCGG | -4.06 ± 0.3 | -2.97 ± 0.26
CCGUAGCAAUAUUACGGGCC | -3.55 ± 0.25 | -2.83 ± 0.32
CCGUAGCAAUAUUACGGUCU | -3.01 ± 0.21 | -2.2 ± 0.18
CCGUAGCAAUAUUACGGUUC | -2.21 ± 0.2 | -2.04 ± 0.26
CCGUAGCAAUAUUACGGUUG | -3.89 ± 0.24 | -1.73 ± 0.19
CCGUAGCAAUAUUACGUAAC | -4.68 ± 0.46 | -0.709 ± 0.24
CCGUAGCAAUAUUACGUACG | -2.13 ± 0.18 | -1.83 ± 0.21

Sequence | self-splicing fitness (ln) (30 °C) | self-splicing fitness (ln) (37 °C)
CCGUAGCAAUAUUACGUAUA | -2.74 ± 0.18 | -2.72 ± 0.27
CCGUAGCAAUAUUACGUCAG | -1.26 ± 0.077 | -1.55 ± 0.089
CCGUAGCAAUAUUACGUCUA | -2.84 ± 0.16 | -1.92 ± 0.18
CCGUAGCAAUAUUACGUGAC | -2.36 ± 0.15 | 
CCGUAGCAAUAUUACGUGGC | -3.76 ± 0.26 | -2.73 ± 0.26
CCGUAGCAAUAUUACGUUGU | -3.87 ± 0.16 | -2.3 ± 0.18
CCUAAGCAAUAUUACGAACU | -3.44 ± 0.48 | -1.99 ± 0.22
CCUAAGCAAUAUUACGAAGA | -1.82 ± 0.22 | -1.82 ± 0.22
CCUAAGCAAUAUUACGAUUC | -3.13 ± 0.29 | -2.6 ± 0.41
CCUAAGCAAUAUUACGCACA | -4.21 ± 0.46 | -1.2 ± 0.35
CCUAAGCAAUAUUACGCAGA |  | -2.34 ± 0.37
CCUAAGCAAUAUUACGCCAA | -2.22 ± 0.24 | -3.27 ± 0.46
CCUAAGCAAUAUUACGCCCA | -3.67 ± 0.33 | -2.02 ± 0.33
CCUAAGCAAUAUUACGCCUU | -3.22 ± 0.21 | -2.79 ± 0.26
CCUAAGCAAUAUUACGCGAG | -4.48 ± 0.25 | -3.56 ± 0.23
CCUAAGCAAUAUUACGCUUA | -3.09 ± 0.18 | -1.97 ± 0.29
CCUAAGCAAUAUUACGGAAU | -3.6 ± 0.25 | -2.48 ± 0.19
CCUAAGCAAUAUUACGGAGC | -2.66 ± 0.35 | 
CCUAAGCAAUAUUACGGAUG | -2.08 ± 0.082 | -1.16 ± 0.085
CCUAAGCAAUAUUACGGCCG | -0.351 ± 0.18 | -0.367 ± 0.22
CCUAAGCAAUAUUACGGCUG | -3.49 ± 0.21 | -2.47 ± 0.3
CCUAAGCAAUAUUACGGGUU | -3.52 ± 0.2 | -2.84 ± 0.2
CCUAAGCAAUAUUACGGUCC |  | -2.28 ± 0.45
CCUAAGCAAUAUUACGUCCG | -1.34 ± 0.11 | -0.638 ± 0.11
